Results published in US20100143940A1, “(3R)-HYDROXYACYL-ACP DEHYDRATASE ENZYMES USED IN THE BIOSYNTHESIS OF MYCOLIC ACIDS AND USE OF SAME FOR SCREENING ANTIBIOTICS” (priority 2007, published 2010).

Tests used:
2-trans-octenoyl-ACP [1] = target: 2-trans-octenoyl-ACP (UniProt P0A6A8)
2-trans-octenoyl-ACP [2] = test: Study of the ACP-dependency, hydration of the ACP derivative at 263 nm; type: biochemical, E. coli; conditions: 2-trans-octenoyl-ACP 2 μM; Rv0635-Rv0636 80 nM, Rv0636-Rv0637 311 nM, Rv0636 alone 311 nM
[3] = target: T1, 2-trans-octenoyl-ACP, P0A6A8
T1 chain: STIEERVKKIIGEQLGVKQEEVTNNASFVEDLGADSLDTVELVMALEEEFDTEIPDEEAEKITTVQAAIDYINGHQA

[4] = Hydratase activity monitored by spectrophotometry at 263 nm, control experiments of the isomerase test; type: biochemical; conditions: 2-trans-decenoyl-CoA 10 μM; Rv0635-Rv0636 80 nM or Rv0636-Rv0637 543 nM; 100 mM sodium phosphate pH 7.0, 25° C.
Protocol: (§1) These reactions are monitored by spectrophotometry at 263 nm by means of a thermostated Uvikon 923 spectrophotometer (Kontron Instruments). They are carried out in a quartz cuvette (optical path of 1 cm) in a total volume of 700 μl at 25° C. The reaction mixture contains 100 mM sodium phosphate buffer, pH 7.0, and varying concentrations of substrates. After equilibration of the base line on the reaction mixture in the absence of the enzyme, the reactions are triggered by the addition of enzyme, and then monitored for 1.5 to 5 min. The reaction rate corresponds to the initial rate measured by plotting the tangent of the curve OD=f(time) at time zero.
The conversions corresponding to the hydration reaction and to the dehydration reaction are associated, respectively, with a decrease and with an increase in the absorbance at 263 nm, linked to the double bond conjugated to the carbonyl. A variation in OD263 of 0.67 corresponds to a variation in concentration of 100 μM.
(§2) The ability of the proteins to catalyze the isomerization reaction was studied in the presence of 3-cis-decenoyl-CoA (10 μM) and of Rv0635-Rv0636 enzyme (80 nM) or Rv0636-Rv0637 enzyme (543 nM). […] The reactions were monitored at 263 nm, where the increase in absorbance results from the conversion of the 3-cis-decenoyl-CoA into 2-trans-decenoyl-CoA.

[5] = Isomerase activity, conversion of 3-cis-enoyl into 2-trans-enoyl, monitored at 263 nm; type: biochemical; conditions: 3-cis-decenoyl-CoA 10 μM; Rv0635-Rv0636 80 nM or Rv0636-Rv0637 543 nM
Protocol: as §1
As in certain FAS-II systems described, the dehydration step can be catalyzed either by a (3R)-hydroxyacyl-ACP dehydratase, or by a (3R)-hydroxyacyl-ACP dehydratase/isomerase of FabA type which, in vivo, converts the 2-trans-enoyls, formed by the dehydration step, into 3-cis-enoyls. […]
as §2

[6] = Study of the ACP-dependency, hydration of the CoA derivative at 263 nm; type: biochemical; conditions: 2-trans-octenoyl-CoA 2 μM; compared with control experiment (no enzyme)
Protocol: as §1
The activities of the enzymes Rv0635-Rv0636 (80 nM), Rv0636-Rv0637 (311 nM) or Rv0636 alone (311 nM) were compared in the presence of 2-trans-octenoyl-ACP (2 μM) or of 2-trans-octenoyl-CoA (2 μM).

[7] = Substrate specificity, 2-trans-enoyl-CoA of various chain lengths; type: biochemical
Protocol: as §1
The substrate specificity was studied in the presence of 2-trans-enoyl-CoA of various chain lengths (C4-C20). The initial rates were measured and compared at a very low substrate concentration in order to reduce as much as possible the solubility problems encountered with these amphiphilic compounds. […]
The tests were carried out in 100 mM sodium phosphate buffer, pH 7.0, in the presence of 3-hydroxybutyryl-CoA (25 or 75 μM) or of 2-trans-octenoyl-CoA (25 μM) or of crotonoyl-CoA (25 μM), and of enzyme (Rv0635-Rv0636: 80 nM; Rv0636-Rv0637: 543 nM). […] After addition of the enzyme, the reactions were monitored by spectrophotometry at 263 nM for 1.5 min. […]

## Rv0635-Rv0636 heterodimer
2-trans-octenoyl-ACP [1]
  specific activity (hydration followed at 263 nm), 2 µM substrate, 80 nM enzyme: 0.28 µmol/min/mg

B1: Rv0636 homodimer: recombinant Rv0636 protein of M. tuberculosis H37Rv (SEQ ID No. 2) carrying the hydratase 2 motif, tested alone (protein, listed as Mycobacterium tuberculosis)
chain: MALREFSSVKVGDQLPEKTYPLTRQDLVNYAGVSGDLNPIHWDDEIAKVVGLDTAIAHGMLTMGIGGGYVTSWVGDPGAVTEYNVRFTAVVPVPNDGKGAELVFNGRVKSVDPESKSVTIALTATTGGKKIFGRAIASAKLA
modifications: homodimer
2-trans-octenoyl-ACP [2]
  specific activity in the presence of 2-trans-octenoyl-ACP: no activity

B2: Rv0636-Rv0637 heterodimer (protein)
chain 1: HHHHHHMALREFSSVKVGDQLPEKTYPLTRQDLVNYAGVSGDLNPIHWDDEIAKVVGLDTAIAHGMLTMGIGGGYVTSWVGDPGAVTEYNVRFTAVVPVPNDGKGAELVFNGRVKSVDPESKSVTIALTATTGGKKIFGRAIASAKLA
chain 2: MALKTDIRGMIWRYPDYFIVGREQCREFARAVKCDHPAFFSEEAAADLGYDALVAPLTFVTILAKYVQLDFFRHVDVGMETMQIVQVDQRFVFHKPVLAGDKLWARMDIHSVDERFGADIVVTRNLCTNDDGELVMEAYTTLMGQQGDGSARLKWDKESGQVIRTA
[3]
  specific activity (hydration followed at 263 nm), 2 µM substrate: 0.047 µmol/min/mg of protein

B3: Rv0636-Rv0637: recombinant heterodimeric (3R)-hydroxyacyl-ACP dehydratase of the M. tuberculosis H37Rv FAS-II system, Rv0636 plus Rv0637 (protein)
chain 1: HHHHHHMALREFSSVKVGDQLPEKTYPLTRQDLVNYAGVSGDLNPIHWDDEIAKVVGLDTAIAHGMLTMGIGGGYVTSWVGDPGAVTEYNVRFTAVVPVPNDGKGAELVFNGRVKSVDPESKSVTIALTATTGGKKIFGRAIASAKLA
chain 2: MALKTDIRGMIWRYPDYFIVGREQCREFARAVKCDHPAFFSEEAAADLGYDALVAPLTFVTILAKYVQLDFFRHVDVGMETMQIVQVDQRFVFHKPVLAGDKLWARMDIHSVDERFGADIVVTRNLCTNDDGELVMEAYTTLMGQQGDGSARLKWDKESGQVIRTA
[4]
  specific activity: 0.02 μmol/min/mg of protein
[5]
  isomerase activity: do not exhibit any isomerase activity
2-trans-octenoyl-ACP [2]
  specific activity in the presence of 2-trans-octenoyl-ACP: 0.047 µmol/min/mg
[6]
  activity in the presence of 2-trans-octenoyl-CoA: not significant
[7]; 2.5 μM substrate
  activity on C12-C20 trans-2-enoyl-CoAs at low substrate concentration: no activity could be detected
[7]; 2.5 or 25 μM 2-trans-enoyl-CoA, Rv0635-Rv0636 80 nM, Rv0636-Rv0637 543 nM
  activity in the presence of short-chain (C4-C8) substrates: inactive
